Patent US8071348B2, “Protein tyrosine phosphatase substrate-trapping double mutant and uses thereof” (Albert Einstein College of Medicine of Yeshiva University, priority 2002, dated 2011)

Key:
[1] = system: EGFR^988-998 peptide, DADEpYLIPQQG; assay: Kinetic constants for PTP1B-catalyzed hydrolysis of pTyr-containing EGFR988-998 peptide; assay type: biochemical; conditions: EGFR988-998 peptide as substrate
How it was run: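 PTP1B catalytic domain (residues 1–321), wild-type or mutant, expressed in E. coli. Continuous assay at 25° C., pH 7.0, in 50 mM 3,3-dimethylglutarate with 1 mM EDTA (ionic strength 0.15 M). Dephosphorylation followed by absorbance increase at 282 nm or fluorescence at 305 nm to obtain kcat and Km.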

[2] = target: T1, Ac-Asp-Ala-Asp-Glu-F2Pmp-Leu-NH2 (Homo sapiens, UniProt P18031, C215S); assay: Isothermal titration calorimetry, binding of PTP1B and mutants to F2Pmp peptide; conditions: lower temperature (15° C.)
T1 construct: The catalytic domain of PTP1B (residues 1 to 321) was used for in vitro study; made in house; host or cells: E. coli (pT7-7 plasmids)
T1 sequence (P18031 1-321 C215S): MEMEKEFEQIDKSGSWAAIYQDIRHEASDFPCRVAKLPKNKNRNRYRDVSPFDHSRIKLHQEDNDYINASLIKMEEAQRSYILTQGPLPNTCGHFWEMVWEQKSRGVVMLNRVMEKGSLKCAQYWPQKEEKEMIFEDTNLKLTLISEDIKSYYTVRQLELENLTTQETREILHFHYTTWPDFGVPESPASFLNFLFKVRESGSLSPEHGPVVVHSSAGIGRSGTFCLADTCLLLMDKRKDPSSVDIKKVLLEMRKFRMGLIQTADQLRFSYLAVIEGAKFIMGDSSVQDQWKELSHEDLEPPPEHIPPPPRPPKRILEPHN
Protocol: FIG. 3 portrays calorimetric isothermal titration for the reaction of peptide Ac-Asp-Ala-Asp-Glu-F2Pmp-Leu-NH2 with PTP1B/D181A/Q262A. The upper graph depicts raw data for thirty 8-μl injections of the peptide (0.5 mM stock) into the isothermal cell containing 32 μM PTP1B/D181A/Q262A, at 4-min intervals and 25° C. Both the protein and the peptide were in 50 mM 3,3-dimethylglutarate buffer (I=0.15 M, pH 7.0) containing 1 mM DTT. The lower graph depicts an integration curve showing experimental points that were obtained by integration of the above peaks as plotted against the molar ratio of the peptide to PTP1B/D181A/Q262A within the reaction cell. The solid line corresponds to the best fit to the data according to the nonlinear, least-squares regression algorithm, ORIGIN (29).
All isothermal titration calorimetry experiments were performed using an MCS Isothermal Titration Calorimetry System from Microcal Inc. (Northampton, Mass.). […] The ionic strength of the buffer was adjusted to 0.15 M by addition of NaCl. Protein concentration in the calorimeter cell was 27-85 μM, while the ligand concentration in the syringe was 0.37-1 mM.
The PTP1B samples used in the isothermal titration calorimetry experiments were dialyzed completely against buffer. High-concentration stock solutions were prepared for ligands with distilled water, and adjusted to pH 7.0. Stock was diluted at least 26-fold with 50 mM 3,3-dimethylglutarate buffer before titration. Protein dilution during titration was determined by titration of buffer into the protein solution. […] The heat of ligand dilution was corrected by subtracting the average heat of injection after saturation.
The binding data were analyzed using ORIGIN software (29). Binding constant, K, and enthalpy change, ΔH, were used to calculate free energy change, ΔG, and entropy change, ΔS, according to equation [1]: −RTLnK=ΔG=ΔH−TΔS [1] where R is the gas constant and T is the absolute temperature.

[3] = system: Ac-Asp-Ala-Asp-Glu-F2Pmp-Leu-NH2; conditions: cited from earlier work

B1: C215S: existing PTP1B substrate-trapping mutant, active site Cys215 replaced by Ser (protein, UniProt P18031 1-435, looked up, variant C215S)
Tyrosine-protein phosphatase …: MEMEKEFEQIDKSGSWAAIYQDIRHEASDFPCRVAKLPKNKNRNRYRDVSPFDHSRIKLHQEDNDYINASLIKMEEAQRSYILTQGPLPNTCGHFWEMVWEQKSRGVVMLNRVMEKGSLKCAQYWPQKEEKEMIFEDTNLKLTLISEDIKSYYTVRQLELENLTTQETREILHFHYTTWPDFGVPESPASFLNFLFKVRESGSLSPEHGPVVVHSSAGIGRSGTFCLADTCLLLMDKRKDPSSVDIKKVLLEMRKFRMGLIQTADQLRFSYLAVIEGAKFIMGDSSVQDQWKELSHEDLEPPPEHIPPPPRPPKRILEPHNGKCREFFPNHQWVKEETQEDKDCPIKEEKGSPLNAAPYGIESMSQDTEVRSRVVGGSLRGAQAASPAKGEPSLPEKDEDHALSYWKPFLVNMCVATVLTAGAYLCYRFLFNSNT
Q: Which phosphatase activity [1] does the source give for B1 here?
A: no measurable activities

Q: And the “shape of ITC titration curve” value [2]?
A: displayed two peaks

Q: And the “affinity compared with wild-type enzyme” value ([3]; F2Pmp peptide, previously determined (24))?
A: same affinity as the wild-type enzyme

Q: And the Kd ([3]; ITC, 25° C. and pH 7.0, data from (24))?
A: 190 ± 30 nM
